# Measurements taken from patent US20230140384A1 (Bristol-Myers Squibb, published 2023).
# What was measured:
# hCD64 [1] = target: T1, hCD64 (human, UniProt P12314 16-288); assay: SPR % Rmax, compared with 12D6-IgG1f-P238K
# T1 construct: also called FcγRI
# Description: (§1) The binding of human FcγRs to antibodies was studied by surface plasmon resonance using a Biacore 8K system (GE Healthcare, USA). For these studies, protein A was immobilized on flow cells 1-4 of the CM5 sensor chip using standard ethyl (dimethylaminopropyl) carbodiimide (EDC)/N-hydroxysuccinimide […] chemistry, with ethanolamine blocking, in a running buffer of 10 mM HEPES pH 7.4, 150 mM NaCl, 3 mM EDTA, 0.05% surfactant p20, to a density of ˜3000 RU. Purified 12D6-24-IgG1f antibody (10 μg/mL) or expression supernatants of all other antibodies (diluted to ˜10 μg/ml) were captured on the protein A surface to a density of ˜1000-1200 RU, and the binding of FcγR analytes was tested in running buffer consisting of 10 mM NaPO₄, 130 mM NaCl, 0.05% p20, buffer (PBS-T) pH 7.1 at 25° C., using 120 s association time and 120 s dissociation time at a flow rate of 20 μL/min. The data were analyzed using Biacore 8K evaluation software by determining the measured binding response as a percentage of theoretical maximum binding response for each antibody (% Rmax), based on the level of captured antibody, assuming 100% fractional activity and only taking into account protein mass without glycosylation.
# hCD64 [2] = target: T1, hCD64; assay: SPR, antibody captured on protein A, FcγR as analyte
# Description: as §1
# T1 sequence (P12314 16-288 limits assumed): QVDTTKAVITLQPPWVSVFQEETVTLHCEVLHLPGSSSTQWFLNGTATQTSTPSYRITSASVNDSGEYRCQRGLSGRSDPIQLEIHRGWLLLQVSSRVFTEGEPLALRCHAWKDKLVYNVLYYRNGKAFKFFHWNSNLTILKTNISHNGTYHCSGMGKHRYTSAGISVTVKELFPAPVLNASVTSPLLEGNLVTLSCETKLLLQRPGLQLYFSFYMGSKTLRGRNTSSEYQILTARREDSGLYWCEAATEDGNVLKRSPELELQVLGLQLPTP
Binder,fold reduction of binding against P238K alone (hCD64 [1]),binding result (hCD64 [2])
"12D6-IgG1f-L235E-P238K (antibody, Tested as expression supernatant; copies: 2 + 2) heavy: not shown light: DIVMTQTPLSLPVTPGEPASISCRSSQSLVHSNANTYLHWYLQKPGQSPQLLIYKLTNRFFGVPDRFSGSGSGTDFTLKISRVEAEDVGVYYCSQSIHVPWTFGGGTKVEIKRTVAAPSVFIFPPSDEQLKSGTASVVCLLNNFYPREAKVQWKVDNALQSGNSQESVTEQDSKDSTYSLSSTLTLSKADYEKHKVYACEVTHQGLSSPVTKSFNRGEC",~10 fold,
"12D6-IgG2.3G1.3f-P238K (antibody, copies: 2 + 2) heavy: QVQLVQSGAEVKKPGASVKVSCKASGYTFTGYNMNWVRQAPGQGLEWMGNIDPYYGNTNYNQKFKGRVTMTTDTSTSTAYMELRSLRSDDTAVYYCARLGLQLYALDYWGQGTTVTVSSASTKGPSVFPLAPCSRSTSESTAALGCLVKDYFPEPVTVSWNSGALTSGVHTFPAVLQSSGLYSLSSVVTVPSSNFGTQTYTCNVDHKPSNTKVDKTVERKSCVECPPCPAPEAEGAKSVFLFPPKPKDTLMISRTPEVTCVVVDVSHEDPEVKFNWYVDGVEVHNAKTKPREEQYNSTYRVVSVLTVLHQDWLNGKEYKCKVSNKALPAPIEKTISKAKGQPREPQVYTLPPSREEMTKNQVSLTCLVKGFYPSDIAVEWESNGQPENNYKTTPPVLDSDGSFFLYSKLTVDKSRWQQGNVFSCSVMHEALHNHYTQKSLSLSPGK light: DIVMTQTPLSLPVTPGEPASISCRSSQSLVHSNANTYLHWYLQKPGQSPQLLIYKLTNRFFGVPDRFSGSGSGTDFTLKISRVEAEDVGVYYCSQSIHVPWTFGGGTKVEIKRTVAAPSVFIFPPSDEQLKSGTASVVCLLNNFYPREAKVQWKVDNALQSGNSQESVTEQDSKDSTYSLSSTLTLSKADYEKHKVYACEVTHQGLSSPVTKSFNRGEC",,no binding (tested: 1 µM)
"12D6-IgG2.5G1.3f-P238K (antibody, copies: 2 + 2) heavy: QVQLVQSGAEVKKPGASVKVSCKASGYTFTGYNMNWVRQAPGQGLEWMGNIDPYYGNTNYNQKFKGRVTMTTDTSTSTAYMELRSLRSDDTAVYYCARLGLQLYALDYWGQGTTVTVSSASTKGPSVFPLAPSSRSTSESTAALGCLVKDYFPEPVTVSWNSGALTSGVHTFPAVLQSSGLYSLSSVVTVPSSNFGTQTYTCNVDHKPSNTKVDKTVERKCCVECPPCPAPEAEGAKSVFLFPPKPKDTLMISRTPEVTCVVVDVSHEDPEVKFNWYVDGVEVHNAKTKPREEQYNSTYRVVSVLTVLHQDWLNGKEYKCKVSNKALPAPIEKTISKAKGQPREPQVYTLPPSREEMTKNQVSLTCLVKGFYPSDIAVEWESNGQPENNYKTTPPVLDSDGSFFLYSKLTVDKSRWQQGNVFSCSVMHEALHNHYTQKSLSLSPGK light: DIVMTQTPLSLPVTPGEPASISCRSSQSLVHSNANTYLHWYLQKPGQSPQLLIYKLTNRFFGVPDRFSGSGSGTDFTLKISRVEAEDVGVYYCSQSIHVPWTFGGGTKVEIKRTVAAPSVFIFPPSDEQLKSGTASVVCLLNNFYPREAKVQWKVDNALQSGNSQESVTEQDSKDSTYSLSSTLTLSKADYEKHKVYACEVTHQGLSSPVTKSFNRGEC",,no binding (tested: 1 µM)
"12D6-IgG1.3f-P238K (antibody, Tested as expression supernatant; IgG1.3f carries L234A, L235E and G237A; copies: 2 + 2) heavy: QVQLVQSGAEVKKPGASVKVSCKASGYTFTGYNMNWVRQAPGQGLEWMGNIDPYYGNTNYNQKFKGRVTMTTDTSTSTAYMELRSLRSDDTAVYYCARLGLQLYALDYWGQGTTVTVSSASTKGPSVFPLAPSSKSTSGGTAALGCLVKDYFPEPVTVSWNSGALTSGVHTFPAVLQSSGLYSLSSVVTVPSSSLGTQTYICNVNHKPSNTKVDKRVEPKSCDKTHTCPPCPAPEAEGAKSVFLFPPKPKDTLMISRTPEVTCVVVDVSHEDPEVKFNWYVDGVEVHNAKTKPREEQYNSTYRVVSVLTVLHQDWLNGKEYKCKVSNKALPAPIEKTISKAKGQPREPQVYTLPPSREEMTKNQVSLTCLVKGFYPSDIAVEWESNGQPENNYKTTPPVLDSDGSFFLYSKLTVDKSRWQQGNVFSCSVMHEALHNHYTQKSLSLSPGK light: DIVMTQTPLSLPVTPGEPASISCRSSQSLVHSNANTYLHWYLQKPGQSPQLLIYKLTNRFFGVPDRFSGSGSGTDFTLKISRVEAEDVGVYYCSQSIHVPWTFGGGTKVEIKRTVAAPSVFIFPPSDEQLKSGTASVVCLLNNFYPREAKVQWKVDNALQSGNSQESVTEQDSKDSTYSLSSTLTLSKADYEKHKVYACEVTHQGLSSPVTKSFNRGEC",,no binding (tested: 1 µM)
